In US20200123264A1 (Regeneron, published 2020):

T1: recombinant human LEPR extracellular domain expressed with a C-terminal mouse IgG2a Fc tag (human)
T1 construct: Dimeric construct; also called hLEPR.mFc; hLEPR-mFc
T1 chain: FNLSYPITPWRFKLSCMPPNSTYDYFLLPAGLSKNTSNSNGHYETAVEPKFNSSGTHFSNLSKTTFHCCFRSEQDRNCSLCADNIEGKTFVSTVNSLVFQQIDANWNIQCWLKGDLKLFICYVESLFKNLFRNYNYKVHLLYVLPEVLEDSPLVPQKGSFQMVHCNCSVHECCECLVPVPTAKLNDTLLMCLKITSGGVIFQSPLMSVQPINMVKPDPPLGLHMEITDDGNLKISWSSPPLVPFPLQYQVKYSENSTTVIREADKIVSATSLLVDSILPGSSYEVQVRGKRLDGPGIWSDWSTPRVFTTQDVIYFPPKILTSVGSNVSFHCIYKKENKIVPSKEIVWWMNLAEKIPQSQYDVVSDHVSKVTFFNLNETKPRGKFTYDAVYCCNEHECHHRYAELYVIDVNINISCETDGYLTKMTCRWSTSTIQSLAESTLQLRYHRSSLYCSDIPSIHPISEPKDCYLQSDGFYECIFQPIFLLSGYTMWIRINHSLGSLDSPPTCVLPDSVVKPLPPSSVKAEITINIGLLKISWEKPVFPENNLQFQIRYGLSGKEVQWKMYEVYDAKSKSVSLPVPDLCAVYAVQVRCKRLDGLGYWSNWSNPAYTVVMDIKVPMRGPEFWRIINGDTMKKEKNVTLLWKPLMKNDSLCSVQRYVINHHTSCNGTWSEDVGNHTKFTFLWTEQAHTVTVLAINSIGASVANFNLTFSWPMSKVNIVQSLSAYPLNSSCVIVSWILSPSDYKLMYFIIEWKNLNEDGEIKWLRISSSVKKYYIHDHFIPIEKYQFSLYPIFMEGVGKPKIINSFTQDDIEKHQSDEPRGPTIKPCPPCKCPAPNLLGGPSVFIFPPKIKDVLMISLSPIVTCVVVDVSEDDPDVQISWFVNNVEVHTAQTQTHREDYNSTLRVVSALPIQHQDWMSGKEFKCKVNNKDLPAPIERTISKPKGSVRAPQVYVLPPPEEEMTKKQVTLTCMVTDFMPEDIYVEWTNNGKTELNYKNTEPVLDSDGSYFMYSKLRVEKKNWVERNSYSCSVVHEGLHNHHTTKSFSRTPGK


Assays:
Assay in all cases: SPR, mAb captured, 25 C
[1] = molecular target: T2, recombinant cynomolgus monkey LEPR extracellular domain expressed with a C-terminal myc-myc-hexahistidine tag (cynomolgus monkey, UniProt Q9MYL0 22-837 (rhesus entry))
T2 construct: Monomeric construct; also called mfLEPR.MMH; mfLEPR-MMH
Method: (§1) Equilibrium dissociation constants (KD values) for antigen binding to purified anti-LEPR monoclonal antibodies of the invention were determined using a real-time surface plasmon resonance biosensor using a Biacore 4000 instrument. All binding studies were performed in running buffer containing 10 mM HEPES, 150 mM NaCl, 3 mM EDTA, and 0.05% v/v Surfactant Tween-20, pH 7.4 (HBS-ET running buffer) at 25° C. and 37° C. The Biacore sensor surface was first derivatized by amine coupling with a monoclonal mouse anti-human Fc antibody (GE, # BR-1008-39) to the capture anti-LEPR monoclonal antibodies. The LEPR reagents tested for binding to the anti-LEPR monoclonal antibodies included recombinant human LEPR extracellular domain expressed with a C-terminal myc-myc-hexahistidine tag (hLEPR.MMH; SEQ ID NO:90), recombinant cynomolgus monkey LEPR extracellular domain expressed with a C-terminal myc-myc-hexahistidine tag (mfLEPR.MMH; SEQ ID NO:93), recombinant mouse LEPR extracellular domain expressed with a C-terminal myc-myc-hexahistidine tag (mLEPR.MMH; SEQ ID NO:94), recombinant rat LEPR extracellular domain expressed with a C-terminal myc-myc-hexahistidine tag (rLEPR.MMH; SEQ ID NO:95), and recombinant human LEPR extracellular domain expressed with a C-terminal mouse IgG2a Fc tag (hLEPR.mFc; SEQ ID NO:91). LEPR constructs that include MMH tags are monomeric LEPR constructs, and LEPR constructs including an mFc tag are dimeric LEPR constructs. […] The dissociation of monoclonal antibody bound LEPR reagent was monitored for 10 minutes in HBS-ET running buffer. Kinetic association (10 and dissociation (10 rate constants were determined by fitting the real-time binding sensorgrams to a 1:1 binding model with mass transport limitation using Scrubber 2.0c curve-fitting software. Binding dissociation equilibrium constants (KD) and dissociative half-lives (t½) were calculated from the kinetic rate constants as: […]

[2] = molecular target: T1, recombinant human LEPR extracellular …
Method: as §1

[3] = molecular target: T3, recombinant human LEPR extracellular domain expressed with a C-terminal myc-myc-hexahistidine tag (human, UniProt P48357 22-839)
T3 construct: Monomeric construct; also called hLEPR.MMH; hLEPR-MMH
Method: as §1

[4] = molecular target: T4, recombinant rat LEPR extracellular domain expressed with a C-terminal myc-myc-hexahistidine tag (rat, UniProt Q62959 22-839)
T4 construct: Monomeric construct; also called rLEPR.MMH; rLEPR-MMH
Method: as §1

T4 sequence (Q62959 other isoform, or with tags, fused parts or gaps): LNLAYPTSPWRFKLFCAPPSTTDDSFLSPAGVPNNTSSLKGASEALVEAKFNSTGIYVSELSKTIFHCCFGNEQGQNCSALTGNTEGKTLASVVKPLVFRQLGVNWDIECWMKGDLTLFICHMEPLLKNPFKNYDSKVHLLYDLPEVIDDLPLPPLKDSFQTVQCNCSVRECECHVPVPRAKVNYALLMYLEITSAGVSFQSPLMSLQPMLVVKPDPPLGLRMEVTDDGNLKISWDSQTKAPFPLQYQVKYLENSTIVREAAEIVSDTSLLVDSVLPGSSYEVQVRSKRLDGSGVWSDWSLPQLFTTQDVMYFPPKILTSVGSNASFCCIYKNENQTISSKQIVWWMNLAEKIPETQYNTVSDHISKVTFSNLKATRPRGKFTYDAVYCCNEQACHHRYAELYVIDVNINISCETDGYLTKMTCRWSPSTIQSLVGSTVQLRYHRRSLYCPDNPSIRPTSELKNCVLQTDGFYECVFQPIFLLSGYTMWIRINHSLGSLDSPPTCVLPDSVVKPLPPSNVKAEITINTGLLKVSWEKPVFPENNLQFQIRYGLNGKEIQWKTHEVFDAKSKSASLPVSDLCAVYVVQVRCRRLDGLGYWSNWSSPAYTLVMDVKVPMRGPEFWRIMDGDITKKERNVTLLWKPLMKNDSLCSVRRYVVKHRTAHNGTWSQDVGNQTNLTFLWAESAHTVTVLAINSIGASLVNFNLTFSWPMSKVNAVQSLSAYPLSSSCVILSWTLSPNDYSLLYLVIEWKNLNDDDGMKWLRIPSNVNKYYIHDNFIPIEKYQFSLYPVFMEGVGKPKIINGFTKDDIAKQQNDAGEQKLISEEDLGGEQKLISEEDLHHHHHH

Row | Binder | 100 nM mfLEPR-MMH Bound (RU) [1] [RU] | Kd [1] [nM] | koff [1] [s⁻¹] | kon [1] [M⁻¹ s⁻¹] | t½ [1] [min] | 100 nM hLEPR-mFc Bound (RU) [2] [RU] | Kd [2] [nM] | koff [2] [s⁻¹] | kon [2] [M⁻¹ s⁻¹] | t½ [2] [min] | 100 nM hLEPR-MMH Bound (RU) [3] [RU] | Kd [3] [nM] | koff [3] [s⁻¹] | kon [3] [M⁻¹ s⁻¹] | t½ [3] [min] | 100 nM rLEPR-MMH Bound (RU) [4] [RU] | Kd [4] [nM] | koff [4] [s⁻¹] | kon [4] [M⁻¹ s⁻¹] | t½ [4] [min]
1 | H4H18437P2 (antibody, human IgG4, V domains shown, H4H prefix: human IgG4 Fc) VH: QVQLVESGGGVVQPGRSLRLSCAASGFTFSSYGIHWVRQAPGKGLEWVAVISYDGNNKYYADSVKGRFTISRDNSKNTLYLQMNSLRAEDTAVYYCAKDLFLEWLFHGMGVWGQGTTVTVSS VL: not shown | 70 | 58.9 | 0.00405 | 68700 | 2.9 | 70 | 5.27 | 0.000536 | 102000 | 22 | 56 | 65.3 | 0.00375 | 57400 | 3.1 | 13 | 328 | 0.0138 | 42100 | 0.8
2 | H4H17322P2 (antibody, human IgG4, V domains shown, H4H prefix: human IgG4 Fc) VH: QLQLQESGPGLVKPSETLSLTCTVSGASISSSRFYGGWIRQPPGKGLEWIGDIYYSGNTYYNPSLQSRVTISVDTSKNQFSLKLSSVTAADTAVYYCARHLMITFGGLIVEGFDIWGQGTMVTVSS VL: not shown | 102 | 4.16 | 0.000292 | 70200 | 40 | 74 | 1.77 | 0.000114 | 64500 | 102 | 66 | 5.11 | 0.000224 | 43800 | 52 | – | – | – | – | –
3 | H4H18457P2 (antibody, human IgG4, V domains shown, H4H prefix: human IgG4 Fc) VH: EVQLVESGGSVVRPGESLRLSCAASGFTFDDYGMSWVRQAPGKGLEWVSGISWNGGITVYADSVKGRFTVSRDNAKNSLYLQMNSLRAEDTALYHCARARYGGADYWGQGTLVTVSS VL: not shown | 133 | 12.2 | 0.00331 | 273000 | 3.5 | 149 | 0.863 | 0.000423 | 491000 | 27 | 119 | 9.89 | 0.00252 | 255000 | 5 | 18 | 730 | 0.0206 | 28300 | 0.6
4 | H4H18464P2 (antibody, human IgG4, V domains shown, H4H prefix: human IgG4 Fc) VH: QVQLVQSGPEVKKPGASVKVSCKGSGYTFSWYGISWIRQAPGHGLEWMGWISASSGNTRFAQKVQGRLTMTTDTSTSTAYMELRSLRSDDTAVYYCARTGTRPFDYWGQGTLVTVSS VL: not shown | 15 | 60.4 | 0.00231 | 38200 | 5 | 84 | 0.891 | 0.000188 | 211000 | 61 | 60 | 9.09 | 0.00113 | 124000 | 10 | -1 | – | – | – | –

Second part, the binder after the results:

Row | 100 nM mfLEPR-MMH Bound (RU) [1] [RU] | Kd [1] [nM] | koff [1] [s⁻¹] | kon [1] [M⁻¹ s⁻¹] | t½ [1] [min] | 100 nM hLEPR-mFc Bound (RU) [2] [RU] | Kd [2] [nM] | koff [2] [s⁻¹] | kon [2] [M⁻¹ s⁻¹] | t½ [2] [min] | 100 nM hLEPR-MMH Bound (RU) [3] [RU] | Kd [3] [nM] | koff [3] [s⁻¹] | kon [3] [M⁻¹ s⁻¹] | t½ [3] [min] | 100 nM rLEPR-MMH Bound (RU) [4] [RU] | Kd [4] [nM] | koff [4] [s⁻¹] | kon [4] [M⁻¹ s⁻¹] | t½ [4] [min] | Binder
5 | 67 | 54.1 | 0.00268 | 49500 | 4.3 | 140 | 0.443 | 6.82e-05 | 154000 | 169 | 71 | 11.8 | 0.000497 | 42300 | 23 | -2 | – | – | – | – | H4H18440P2 (antibody, human IgG4, V domains shown, H4H prefix: human IgG4 Fc) VH: QVQLVESGGGMVKPGGSLRLSCAASGFTFSDYYMSWIRQAPGKGLEWISHISITGSTIYYADSVKGRFTISRDNAKNSLYLEMNRLRDEDTAVYYCTRDEPDIVLVRYGMDVWGQGTTVTVSS VL: not shown
6 | 30 | 148 | 0.00669 | 45000 | 1.7 | 37 | 11.9 | 0.000472 | 39700 | 24 | 24 | 194 | 0.00511 | 26400 | 2.3 | 5 | 943 | 0.0198 | 21000 | 0.6 | H4H18466P2 (antibody, human IgG4, V domains shown, H4H prefix: human IgG4 Fc) VH: EVQLVESGGGLVQPGGSLRLSCTASGFTFSSYGLHWVRQAPGKGLEYVSSINHNGGSKYYADSVKGRFTISRDNSKNTLFLQMGSLKTEDMAVYYCARDLFLEWLFHGFDIWGQGTMVTVSS VL: not shown
7 | 42 | 179 | 0.0133 | 74200 | 0.9 | 68 | 3.26 | 0.000296 | 90800 | 39 | 34 | 113 | 0.00765 | 67900 | 1.5 | 5 | 336 | 0.0108 | 32100 | 1.1 | H4H18462P2 (antibody, human IgG4, V domains shown, H4H prefix: human IgG4 Fc) VH: EVQLVESGGDLVQPGRSLRLSCAASGFTFSSFAMSWVRQAPGRGLEWVSSLSDSGDNTYYADSVKGRFTISRDNSKNTLYLQMNNLRAEDTAVYYCAKDLFSGWLFHGFDVWGQGTMVTVSS VL: not shown
8 | 22 | 96.3 | 0.00152 | 15700 | 8 | 53 | 3.69 | 0.00018 | 48700 | 64 | 21 | 106 | 0.00113 | 10700 | 10 | -1 | – | – | – | – | H4H18439P2 (antibody, human IgG4, V domains shown, H4H prefix: human IgG4 Fc) VH: QLQLQESGPGLVKPSETLSLTCIVSGGDITSSSYYWNWIRQPPGKGLEWIGNIYYSGSTNYNPSLKSRVTISIDTSKSQFSLKLRSVTAADTAVYYCARLLRYFDWSKGYLDYWGQGTLVTVSS VL: not shown
